Experimental data published in article PMC13544220, “Glycemic and bodyweight effects of GIPR coding variation reflect differences in surface expression and intrinsic functional impairment” (Science Advances, 2026).
Changes are numbered by the printed parent chain.

B1: p.Arg131Ser (protein, UniProt P48546 22-466, looked up, variant R131S)
Gastric inhibitory …: RAETGSKGQTAGELYQRWERYRRECQETLAAAEPPSGLACNGSFDMYVCWDYAAPNATARASCPWYLPWHHHVAAGFVLRQCGSDGQWGLWRDHTQCENPEKNEAFLDQSLILERLQVMYTVGYSLSLATLLLALLILSLFRRLHCTRNYIHINLFTSFMLRAAAILSRDRLLPRPGPYLGDQALALWNQALAACRTAQIVTQYCVGANYTWLLVEGVYLHSLLVLVGGSEEGHFRYYLLLGWGAPALFVIPWVIVRYLYENTQCWERNEVKAIWWIIRTPILMTILINFLIFIRILGILLSKLRTRQMRCRDYRLRLARSTLTLVPLLGVHEVVFAPVTEEQARGALRFAKLGFEIFLSSFQGFLVSVLYCFINKEVQSEIRRGWHHCRLRRSLGEEQRQLPERAFRALPSGSGPGEVPTSRGLSSGTLPGPGNEASRELESYC
B2: p.Ile403Val (protein, UniProt P48546 22-466, looked up, variant I403V)
Gastric inhibitory …: B1 Gastric inhibitory … with S110R, I382V
B3: p.Glu463Gln (protein, UniProt P48546 22-466, looked up, variant E463Q)
Gastric inhibitory …: B1 Gastric inhibitory … with S110R, E442Q
B4: p.Arg136Trp (protein, UniProt P48546 22-466, looked up, variant R136W)
Gastric inhibitory …: B1 Gastric inhibitory … with S110R, R115W
B5: p.Arg300Trp (protein, UniProt P48546 22-466, looked up, variant R300W)
Gastric inhibitory …: B1 Gastric inhibitory … with S110R, R279W
B6: p.Ser415Ile (protein, UniProt P48546 22-466, looked up, variant S415I)
Gastric inhibitory …: B1 Gastric inhibitory … with S110R, S394I
B7: p.Gly438Ser (protein, UniProt P48546 22-466, looked up, variant G438S)
Gastric inhibitory …: B1 Gastric inhibitory … with S110R, G417S
B8: p.Arg341Pro (protein, UniProt P48546 22-466, looked up, variant R341P)
Gastric inhibitory …: B1 Gastric inhibitory … with S110R, R320P
B9: p.Leu100Phe (protein, UniProt P48546 22-466, looked up, variant L100F)
Gastric inhibitory …: B1 Gastric inhibitory … with L79F, S110R
B10: p.Glu354Gln (protein, UniProt P48546 22-466, looked up, variant E354Q)
Gastric inhibitory …: B1 Gastric inhibitory … with S110R, E333Q
B11: p.Ala268Val (protein, UniProt P48546 22-466, looked up, variant A268V)
Gastric inhibitory …: B1 Gastric inhibitory … with S110R, A247V
B12: p.Asp66Gly (protein, UniProt P48546 22-466, looked up, variant D66G)
Gastric inhibitory …: B1 Gastric inhibitory … with D45G, S110R
B13: p.Leu262His (protein, UniProt P48546 22-466, looked up, variant L262H)
Gastric inhibitory …: B1 Gastric inhibitory … with S110R, L241H
B14: p.Ala207Val (protein, UniProt P48546 22-466, looked up, variant A207V)
Gastric inhibitory …: B1 Gastric inhibitory … with S110R, A186V
B15: p.Glu252Asp (protein, UniProt P48546 22-466, looked up, variant E252D)
Gastric inhibitory …: B1 Gastric inhibitory … with S110R, E231D
B16: p.Arg217Leu (protein, UniProt P48546 22-466, looked up, variant R217L)
Gastric inhibitory …: B1 Gastric inhibitory … with S110R, R196L
B17: p.Arg183Gln (protein, UniProt P48546 22-466, looked up, variant R183Q)
Gastric inhibitory …: B1 Gastric inhibitory … with S110R, R162Q
B18: p.Ser447Thr (protein, UniProt P48546 22-466, looked up, variant S447T)
Gastric inhibitory …: B1 Gastric inhibitory … with S110R, S426T
B19: p.Arg190Gln (protein, UniProt P48546 22-466, looked up, variant R190Q)
Gastric inhibitory …: B1 Gastric inhibitory … with S110R, R169Q
B20: p.Leu262Val (protein, UniProt P48546 22-466, looked up, variant L262V)
Gastric inhibitory …: B1 Gastric inhibitory … with S110R, L241V
B21: p.Ile378Met (protein, UniProt P48546 22-466, looked up, variant I378M)
Gastric inhibitory …: B1 Gastric inhibitory … with S110R, I357M
B22: p.Arg336Pro (protein, UniProt P48546 22-466, looked up, variant R336P)
Gastric inhibitory …: B1 Gastric inhibitory … with S110R, R315P
B23: p.Glu288Gly (protein, UniProt P48546 22-466, looked up, variant E288G)
Gastric inhibitory …: B1 Gastric inhibitory … with S110R, E267G
B24: p.Arg404His (protein, UniProt P48546 22-466, looked up, variant R404H)
Gastric inhibitory …: B1 Gastric inhibitory … with S110R, R383H
B25: p.Ser64Ala (protein, UniProt P48546 22-466, looked up, variant S64A)
Gastric inhibitory …: B1 Gastric inhibitory … with S43A, S110R
B26: p.Thr116Arg (protein, UniProt P48546 22-466, looked up, variant T116R)
Gastric inhibitory …: B1 Gastric inhibitory … with T95R, S110R
B27: p.Arg101His (protein, UniProt P48546 22-466, looked up, variant R101H)
Gastric inhibitory …: B1 Gastric inhibitory … with R80H, S110R

Tested on: wild-type and variant SNAP-GIPR
Experiment: Single-concentration GIP cAMP response by HTRF in AD293 cells
Assay type: cell-based, human
Conditions: cAMP responses to 100 pM GIP in AD293 cells; summary classification (decrease/neutral/increase)
Protocol: All variants were tested in parallel on each occasion to control for transfection efficiency differences between experiments.

Row | Molecule | cAMP response
1 | B1 | decrease
2 | B2 | neutral
3 | B3 | neutral
4 | B4 | decrease
5 | B5 | decrease
6 | B6 | neutral
7 | B7 | neutral
8 | B8 | decrease
9 | B9 | neutral
10 | B10 | increase
11 | B11 | increase
12 | B12 | decrease
13 | B13 | decrease
14 | B14 | neutral
15 | B15 | increase
16 | B16 | decrease
17 | B17 | decrease
18 | B18 | neutral
19 | B19 | decrease
20 | B20 | neutral
21 | B21 | neutral
22 | B22 | neutral
23 | B23 | decrease
24 | B24 | decrease
25 | B25 | decrease
26 | B26 | decrease
27 | B27 | decrease

Tested on: wild-type and variant SNAP-GIPR
Experiment: Surface SNAP-GIPR expression (SNAP-tag labelling) in AD293 cells
Assay type: cell-based, human
Conditions: level of surface expression, based on in vitro functional data in AD293 cells; summary classification
Protocol: Twenty-four hours before the experiment, AD293 or INS-1 cells were reverse transfected with GIPR variant or wild-type plasmids using Lipofectamine 2000 in 96-well, clear-bottom, black microplates precoated with poly-D-lysine. All variants were tested in parallel on each occasion to control for transfection efficiency differences between experiments. Cells were then labeled using the cell-impermeant probe SNAP-Surface Alexa Fluor 647 (500 nM, New England Biolabs, USA) for 10 min at room temperature to label only surface GIPR. […] Several fields of view (FOVs) were acquired within each well using a 20X, 0.75–numerical aperture (NA) air objective. Surface GIPR fluorescence was quantified after flat-field correction using BaSiC ([72]) and segmenting using Phantast ([73]), which generates a mask based on the phase contrast images to demarcate cell versus noncell. Wide-field imaging of the surface-specific labeling achieved by SNAP-Surface probes means that surface expression can be established from whole-cell fluorescence, after subtracting nonspecific fluorescence from a separate well containing nontransfected cells processed in parallel from the same experiment. Data were normalized by dividing by the average specific signal across each experiment, or by the wild-type value, as indicated in the figure legends.

Row | Molecule | Surface expression
28 | B1 | neutral
29 | B2 | neutral
30 | B3 | neutral
31 | B4 | neutral
32 | B5 | decrease
33 | B6 | neutral
34 | B7 | neutral
35 | B8 | decrease
36 | B9 | neutral
37 | B10 | decrease
38 | B11 | neutral
39 | B12 | decrease
40 | B13 | decrease
41 | B14 | neutral
42 | B15 | neutral
43 | B16 | decrease
44 | B17 | decrease
45 | B18 | neutral
46 | B19 | decrease
47 | B20 | neutral
48 | B21 | increase
49 | B22 | neutral
50 | B23 | decrease
51 | B24 | decrease
52 | B25 | decrease
53 | B26 | neutral
54 | B27 | decrease
